Experimental data taken from the domain aggregation screens of Martell et al. (2025).

Assay: soluble fraction after stress (log2 fold change); higher = more stays soluble; pooled small domains, quantitative proteomics
Details: stress: 50 degC
Procedure, shortened: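 The stress applied to every library was 50°C. These custom libraries of small protein domains were pooled and measured at high throughput with quantitative proteomics as the read-out. Aggregation propensity is expressed as the base-two logarithm of the fold change in how much of each protein remains soluble. The higher the value, the more of that protein stays in solution.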

Row | Sequence | soluble fraction (log2)
1 | HMSLPDREVVLETSSDSYYHFKTDHFQRQITYSAVRNAPVRLVTISAERAFEVISLNRRGERPEHLE | -3.53
2 | HMGFAANLSRLMEYHNISMYRLAKEVGVHQTTVKNWLEEESEPKIAALEKIVGLLGVSYDELLG | -4.56
3 | HMESRTQVYDFYKDLFREKRRPLRAEEMLSALKSQRGIVGVNQYQIIEQHGIVRLSGSGRSALYWDTDLGS | -2.74
4 | HMITPNQAAVTLKVSTSTLRRWSSDFEPFLSPRKGVKRLYTIEDIATLKRIQGLYKQGMNTAQVQA | -2.1
5 | HMASPTKQLVLEALRASGQPMSSMELSAQIGVSRATAQRYLSTLASAGEVKIQLRYGTTGRPEQEFLAIE | -0.868
6 | HMAKTGMDALVGRRVVLTKAIAGEGEGLVAVDGDVWRATSPAGSAIPKGTEVRITGYRSIVLEVEPI | -0.184
7 | HMRGGLATLTPRERQVLALMAEGRSNAGIAAELVVSGGAVEKHVASIFTKLGLPPDESDNRRVLAVLRHLG | -0.661
8 | HMDRRIDIANAVKTALGSLPERQKTAIVLVHYEGFSGAETAKLLGISVEAVESLLARARRNLRQTLGP | -0.455
9 | HMPINPKVKQIYDTLKDGGADVGSEKEFNDYFFAKGKDGYNNRKEVFNTLREGGADAGKSYEEFAGWLGL | 0.362
10 | HMDKGQRGWINLVSVPTARVIIDGYDTGHETPLYGYEVERGKRKVTLISLDGTYERTYEIRIEPGTTTRVR | -0.775
11 | HMANNPISMIKIRQILRLHIQGRSKLQIAAQTGISRNTLKKYLKEFEASKLTYDEISELSDKDLEDLFIK | -2.02
12 | HMDRTLTYTVSIEESDLRADQFLSRRGFSSHLLTRLRKNMEHLLINGTPSRTNTHLHEGDILTVHIVEE | -0.479
13 | HMPPSGPWEQDPPSEAQLKPFNEAMKRTADIDVDLYEKAKKALNDGTITKGNIYDWINREDSPWVLQDGS | 0.141
14 | HMASQVERGAVVVTDQRIFFIGVSSEGIEVHGTKIFGMSEKAPLYSHMKGLKKGDSFQFNGLKYVIQDIY | -3.39
15 | HMYTVQPHESLWSIAASQLGDGHRFTEIVDLNQELLGGKANFIKPGWVLQIP | -0.299
16 | HMHLLPAREQVAAYLRKAILRQEIREGTILNLADTARQMGVSVTPVREALQLLAAQGLVRLRPNKGAVVMG | -0.891
17 | HMAEPLEIGDTVRIIDGFYGGEIGVISELVNPDAKNAEFEQVRVRLDQDTELALPIHNVERVRL | 0.25
18 | HMGIMNFDTWLKSLPGTPTPTIAAKKSGLAAPTLLRHVERGYSTADNVIAIAKAYGVSPIDALVDNGML | -0.695
19 | HMHTGLTNYEYKQIKSSLLKILTQSESMRLGELVDKVDQFESEKVTTVIRFLVGNEELMLFDDTLTLKKQL | 0.0246
20 | HMGGSLADAKRFLADLLADGPVPAKGVRADADGAGHTWPTIRRAQKALGIEATKTGMKGGWVWALPR | -0.034
21 | HMDSEQLSGLVNMGFSVYQAKTALEMFDNDIERAANYL | -0.425
22 | HMFEQFEVENLQELQQEWGDKFNHNLEMARRAFMNFATPEAVKVLEETGMGNHPELLKVFARIGEVLAED | -0.536
23 | HMKYFDRDLINYIQKTLAGKKIDFHEKIVPLIIELAGSDIRRVDEIIDMAEYSGKGMHVSEEMIRELAGDV | -0.815
24 | HMSFGYFQLRAKDPQKLKSVLEKIPQIQSIKEEKGDLIGYLNADMEAEELSQKLAAAKIFVTHMAKKK | -0.0166
25 | HMKRWHVGDPIDALTAAGKVPSWSTIRQRFWKTIAALYPDIEQSERLQRGLAMLDEAGTSIELHHP | -1.01

Row | Sequence | soluble fraction (log2)
26 | HMTNYYTVTFKEGDTVLKEVSVHSGDGVPYAVAPKRDDIVGWSYNGNTYTTDLNTLKIKKEVTFTAVT | -0.222
27 | HMSESKYKMIKNWIKSKILDGTLVPNQKIYSESELMEIFDVSRHTVRLAIGELVSEGYLFKRQGTGTFVTQ | -0.577
28 | HMSLTTKSVEETLGITRQTLHNWIKEGLLPAPKKDFRNWYIWSDEDLENLRNIIEQKTLINNKKQAV | -0.133
29 | HMFDEVKDAARRLAALLDQAGGTLTLNDKSAPEEVAALTGMSKKVFKRALGHLMSRSEVVVADGRITKKD | -0.289
30 | HMLGERIRRLRKEMGMSVTELARRVKTSPSYISEIEKGEKTPSLNLLVRIASELRTGIDYLTGL | -0.294
31 | HMGDERDRLLLARGKRIYQELIGSDRENVAAALREFEAVLAVNNRRAIHVMRQRLAELFGVYEEFLNEEFL | -2.77
32 | HMLDKRSHAKKVLDAIEAVILGRATNDQLAYTINGRSLQKTPLPDLLRLRSQYQAEYQRELRAERIRKG | -0.131
33 | HMRLSVVDLQDSLRGLEYPAGKGDLINHAREHNASADVIAVLEQFSERTYRSAADVGEEFGRV | 0.111
34 | HMGKRRGLKVAEEVFADRGYNPDGTLVNRSLPGAFVKDPDEAIARVIKMVKTKKVTAVNGEEIDIAADSI | 0.132
35 | HMNLSPADFSSVRNALGLSLSTVAKESGINRNYLSNFEKKKHFLEETAKVKLRDYYMSIDPDAFAAAL | -0.177
36 | HMKNSAAKETILAFLKKNGGELFTQMQIIEKFQKMIPAPVLRITLEELLNKGQVEITSKGKYYLSVKGS | -0.587
37 | HMGTDVFIMTGGTRKRGATWSYYFDLGKIDGKRQKKEKGGFKTKKEAETALAKAINEYNNAGA | -0.0903
38 | HMLPDPIYEAFMMASDLGIVVRNGPQYAYPDKETGEVLYKALGREKFLQLMKDNDGLLTSIETEIRSM | -1.18
39 | HMRVDYKTQLQELLQRQGAAAPQYRLLVEEGPAHLRRFQVGVYFQGRLLGTGWGRNKKEAEQEAARQALMP | -0.494
40 | HMSMDYYSTLGVSKTASASDIKKAYRKLAMANHPDKGGDSAKFAKITEAYDVLKDPQKRNNYDQFGTA | 0.162
41 | HMKQIEEIIARYTNENTPLMMILSDVQREYGYIPLDVQELISEKTGIPVAEIYGVVTFYSFFSL | -0.572
42 | HMRLIDVFELSPKNRTVLQLYYYEGYSVTEISKILKISVNGVTSRLSRARSKLKLEMEAAENE | -0.316
43 | HMEEMADILKTRIDTLDLSTRTLNALTGANIRTVGGIARKKKEDLLELAGMGEKGIQEIKKVLGGFGITL | -0.0181
44 | HMEEVRFPLKKEILLWALKEAQVDEDEVFRKFTNLEKWINGEKHPTFKQIESLANYLKIPFGYMFLEKPPI | 0.0399
45 | HMHRNLSFEEEKEFLSAYTKQAEAGQIVDLNEMKAAYIEKVGHSIGGSQIYRMLERHGWRKVM | -0.312
46 | HMLNPLLLPFVEAEDFQVKLEILAAMEGKVGEEDLDILYEALDLPKMTGNIEEQIHSIKQYIEMRK | -1.15
47 | HMKLRSIQEQVQYLEKVDNQKAMQIILNMNDKASAVQILRNMKKEKAAAILAQMDPLQAAQILEDLA | 0.0608
48 | HMKQQTRAELLDEFAKAHAERGLYFNRDYEQGEIQALQPDKAREYLQSALEARTERQQASEQDR | 0.274
49 | HMEDLMEERKEHLLSVMKDPAYVPMKQKELAMLLNVPKGLREELNQVLDALVAEGSVVMSKRGKYTIPQ | -0.0312
50 | HMELKFIGEAVNNPKRPLIAILGGAKVSDKIGVIENLLTKADKILIGGAMMFTFLKAEGKNIGTSLVED | 0.0616

Row | Sequence | soluble fraction (log2)
51 | HMATINGIEKYLSSGLIPGIGPHTAKKLVEKFGLDTLDIMQYNPDRLTEVEGIGDKKAAKISEAFQEQK | 0.0735
52 | HMLGSQQAYTDALRLTGLPVDIEVIESDRLPFLIPMRYSLDQHLIEVNVRYPDTRAIRVQQMVEELFHA | -0.624
53 | HMDLYEILGVRRGAGGGEIRRAYRRLARRYHPDVNPGDREAQARYALITRAFETLNDPERRRAYDAGVP | -0.34
54 | HMASELVSADEKYSGLVSYLLGRVVVVDQIDHAIALAKKYRYSLRIVTLDGELLSPGGSMTGGAFKNS | -0.0628
55 | HMEMKMGHIISKLRYESGYSQVELAEKIGITKGAVGMYETDKRKPDYDTLIKLADLFNVSTDYLLS | 0.0501
56 | HMNMYTVTGRLVDQDGVPQANALVTIDSSSQQTRTSPQGFYLIKVFGTEPSTIKFLVDGYDPQIVNFTP | -0.21
57 | HMGIDRPLFTLAQFARQIGEQVKISLSLPQDGRRRLQGKVLSVGESGIVLDVDGREFTVAIGNVDKARL | -1.24
58 | HMRDSLVGLEGVVVREVDDETLAGKVQIGSMEWSARSESGRIPAGRRVVVLRAEGVHIVVKEV | -0.205
59 | HMFDVNSMIAANIVAILKKQNRKQIDLAGALQTNKQTISKMLNGSRMINAIELKRIAEFLGVKMEELTKL | -0.635
60 | HMDDSVVFSLNAKGIRLTGAGKYGEAIALFDKAIAAKPGLSGLYFNRAEARRLSGDLPGARSDLEQALAI | -0.453
61 | HMKKTIIVHVVGEVNTPGIVELNEGARIIDAINGAGGKTEEADMSKINLAYVIEDGSQIYVPSIYE | -0.227
62 | HMQLPTPEDLKKRRNELGLTQSDLAKRAGVSQPLIARIESGDVDPRLSTVRKILDAFEEVEKEQQ | 0.0795
63 | HMSKSIEEIYDEAIRSLANEEYDSAKKLFSYLIDNFSDPEKLPLSLFWLGEIEFSSSNFDQSKIHYIE | -0.0445
64 | HMDNFQFIGYSQQQGQIAVAWIKSLDNGRLVRVEVSDSLEGWRVSDISAQGVNLTKGQQWLMLKRL | -1.73
65 | HMERQILFTKEDLIEFGLSGGTDSRKRRDVLGHILGIGYSNSKQFLNRLNNFGVTREEFLSAIERIG | -0.778
66 | HMTLYQIGDKVVHPMHGAGVIDSVVQRKVSGQVQEFYLLKLSVGNMVVMVPTDNTGEIGMRP | -1.01
67 | HMTIAEGLIFRFTEPFKPIDQYTYYIMGDNKVEQIPNFKTLEVMLAQRNQNYLSVRVIEKSQLDDILKEF | -4.04
68 | HMEQQEFIVPHDSEGQRLDLFLVSVLGTHSRSQIRKLIVNGHVKLENRAPRPNLPVRAGESVVVSMPEPT | 0.121
69 | HMRFQGKISDWNDEKGYGFVEPNGGGTRAFVHIKSFTDLPRRPINGDIIIYETTTDEKNRVQANNISFTR | 0.0181
70 | HMVAGQDPVKRQQILDGAKRVFLGVGFDAASMNDITREAGVSKGTIYVYFGSKEELFGALIDR | -0.663
71 | HMTITIGNSDGGYMKMGADGFEVRFSGSDGGNHYAKMYYNNDGWARLTLGSYGEEKARIDSDGMIQTR | -0.113
72 | HMRYTAAEMAKKLDISRSYLYYLKEAGVVEIEKNENGKPIWTESVYNQLFEYIKKNHRTEEADNTQ | -0.578
73 | HMGDPMAIMQLSSNTTPEYWEAYQKYHIQEYEQSNFIRYVNGISVLDDDFVDKVLITIDQHGRIFSELKS | -2.41
74 | HMLAKNDSGLNNHTFNAIRDALLEALADGPAEAKKLTENISFPSDKIITVIRFLADHDDRFSLEDGILSLT | -0.515
75 | HMRDLITYVVQINGKLRGKLEVAPDTDPEELKALALEVENVKRSLEGWVVKKVIVVPGKMVSIAAG | -0.193
